# From paper PMC6312627
# Key:
# [1] = biological target: streptavidin-phycoerythrin (SA-PE) (UniProt P22629); experiment: bead-based flow cytometry; conditions: PBSMCT selection buffer (PBS with Mg2+, CaCl2, 0.01% Tween 20; full composition not in material), pH 7.4 or pH 5.2 (HCl); bead assays at RT, MST at 25 C with …
# streptavidin (MST) [2] = biological target: streptavidin (MST) (UniProt P22629); experiment: MST; conditions: PBSMCT selection buffer (PBS with Mg2+, CaCl2, 0.01% Tween 20; full composition not in material), pH 7.4 or pH 5.2 (HCl); bead assays at RT, MST at 25 C with …
# streptavidin (MST) [3] = biological target: streptavidin (MST) (UniProt P22629); experiment: cited; conditions: PBSMCT selection buffer (PBS with Mg2+, CaCl2, 0.01% Tween 20; full composition not in material), pH 7.4 or pH 5.2 (HCl); bead assays at RT, MST at 25 C with …; cited from earlier work
# streptavidin (MST) [4] = biological target: streptavidin (MST) (UniProt P22629); experiment: MST; conditions: PBSMCT selection buffer (PBS with Mg2+, CaCl2, 0.01% Tween 20; full composition not in material), pH 7.4 or pH 5.2 (HCl); bead assays at RT, MST at 25 C with …; remark: listed apart in the source
# [5] = biological target: streptavidin-phycoerythrin (SA-PE) (UniProt P22629); experiment: bead-based flow cytometry; conditions: PBSMCT selection buffer (PBS with Mg2+, CaCl2, 0.01% Tween 20; full composition not in material), pH 7.4 or pH 5.2 (HCl); bead assays at RT, MST at 25 C with …; remark: listed apart in the source
Sequence,Kd [1] [µM],binding signal (% reduction vs S8) [1],Kd (streptavidin (MST) [2]) [µM],also measured
ATACCAGCTTATTCAATTATTGACCGCTGTGTGACGCAACACTCAATACCTTCTCAACGTTCTCTGTAGATAGTAAGTGCAATCT [S3],0.0242,–,–,–
ATACCAGCTTATTCAATTATTGACCGCTGTGTGACGCAACACTCAATTCTTGGATCTCGCGGCACACAGATAGTAAGTGCAATCT [S8 G61],–,75,–,–
ATACCAGCTTATTCAATTATTGACCGCTGTGTGACGCAACACTCAATTCTTGGATCTCGCTGCACACAGATAGTAAGTGCAATCT [S8],0.112,–,0.01,–
ATACCAGCTTATTCAATTATTGACCGCTGTGTGACGCAACACTCAATTCTTGGATCTCGCTTCACACAGATAGTAAGTGCAATCT [S8 T62],–,65,–,–
ATTGACCGCTGTGTGACGCAACACTCAAT [SBA29],0.0104,–,0.0061,Kd (streptavidin (MST) [3]): 0.04 µM; Kd (streptavidin (MST) [4]): 0.027 µM; Kd [5]: 0.0035 µM
